According to IntAct's records for PubMed 8887672:

B1: RNA polymerase I-specific transcription initiation factor RRN11 (Saccharomyces cerevisiae), Q04712 (parent)
chain: MFEVPITLTNRKFAQRRKLKYQYINYISRRFDRISKKSTTTDSLPTPENSAAENNDEEEGQNSEAGTYRRSVLQQKKRRRERHWRSVVGEIYSTTESETDSQEEETEEGGEHDTGIDKEDSDEERKFWKKYEKPEKSFEIWRTVSSQNKQPINKQKMTYHNFKKIEKIPLRKMEIPLLHCTKENKLYFQSISRGLEPLKTSTSEVRNYRTRHIVTLTDLLHLNVSRHNWSLAYKIFATLIRIPGVQIKSLWGIGVEILDNLSNSSSGLDFLQWMCQIYSSKSRFVQNINYRSIVPPFQTGSRTHTAKFAITYLWSSLINCQKSMEPSSNIIDKPFDTENDLLQELIDKISEWVLTPPFMEDAEVWFIYASCHLLKADTLSRQFVNDNKNNDLIGLDRDIKINQVIKHIHYVRTFLKICLDKGGFAVPSRLIENQLKSFESRLYGEAQDIQERDVANVYDSIDNSSVENSFGDVYETNAEFLDTQLMDLSPEDNGLDEMHYSDEDSSE
partner: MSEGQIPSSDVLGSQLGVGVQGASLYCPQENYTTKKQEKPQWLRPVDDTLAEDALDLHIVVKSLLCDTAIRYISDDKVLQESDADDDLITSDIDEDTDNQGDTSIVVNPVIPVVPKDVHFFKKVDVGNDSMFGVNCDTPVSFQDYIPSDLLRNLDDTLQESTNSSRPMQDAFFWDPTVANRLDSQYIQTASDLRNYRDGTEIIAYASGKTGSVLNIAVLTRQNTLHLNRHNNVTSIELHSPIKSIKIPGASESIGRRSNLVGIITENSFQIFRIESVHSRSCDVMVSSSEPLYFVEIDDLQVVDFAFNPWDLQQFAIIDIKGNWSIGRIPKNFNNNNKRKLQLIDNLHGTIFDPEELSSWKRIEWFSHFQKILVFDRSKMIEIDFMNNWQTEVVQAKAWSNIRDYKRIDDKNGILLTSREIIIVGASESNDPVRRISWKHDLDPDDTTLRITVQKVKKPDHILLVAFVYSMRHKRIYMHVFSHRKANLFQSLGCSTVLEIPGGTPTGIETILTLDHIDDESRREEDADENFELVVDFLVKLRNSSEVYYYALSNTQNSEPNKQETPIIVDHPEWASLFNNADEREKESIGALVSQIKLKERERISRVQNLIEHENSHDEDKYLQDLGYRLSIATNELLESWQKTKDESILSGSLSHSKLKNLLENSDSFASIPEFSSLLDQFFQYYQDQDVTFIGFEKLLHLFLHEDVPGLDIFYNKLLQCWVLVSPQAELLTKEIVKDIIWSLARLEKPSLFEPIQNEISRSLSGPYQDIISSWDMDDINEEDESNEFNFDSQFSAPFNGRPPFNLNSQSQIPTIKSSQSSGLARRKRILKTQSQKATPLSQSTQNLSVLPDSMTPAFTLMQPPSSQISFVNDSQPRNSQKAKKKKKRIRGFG
B2: RNA polymerase I-specific transcription initiation factor RRN6 (Saccharomyces cerevisiae), P32786 (parent)
chain: B1 partner
partner: B1 chain

Variants of: B1
Details: with rrn6_yeast RRN6, P32786

| effect of a mutation on the interaction | Variant |
| --- | --- |
| decreasing interaction | L481A;L488A;L495A |

Variants of: B2
Details: with rrn11_yeast RRN11, Q04712

| effect of a mutation on the interaction | Variant |
| --- | --- |
| decreasing interaction | L50A;L57A;L64A |
